The values that follow come from PMC3616908.

The test addresses Chk1 (UniProt P38147). The test can be described thus: biotinylated 35-mer peptide pull-down, anti-FLAG blot.

“Rad9 (from UniProt P14737) T125p peptide”: the “binding against the reference” value (reference: unphosphorylated peptide, sites T125) is given as “weaker”.
Regarding “Rad9 (from UniProt P14737) T143p peptide”, the “binding against the reference” value (reference: unphosphorylated peptide, sites T143) was “stronger”.
For the substance “Rad9 (from UniProt P14737) T143p peptide, λ phosphatase treated”, the “binding against the reference” value (reference: T143p peptide, untreated or λ phosphatase plus inhibitors, sites T143) was “weaker”.
As to “Rad9 (from UniProt P14737) T125pT143p peptide”, the “binding against the reference” value is “stronger” (reference: T125p peptide, sites T143); “weaker” (reference: T143p peptide, sites T125); “stronger” (reference: unphosphorylated peptide, sites T125,T143).
